Publication PMC7906288
Like-named read-outs stand apart in the source and are kept apart here.

Legend:
Experiment in all cases: native MS
[1] = biological target: NISTmAb, recombinant humanized monoclonal IgG1 antibody (not stated | human (humanized antibody))
[2] = biological target: SILu Lite SigmaMAb universal antibody standard human (MSQC4) (human)
[3] = biological target: SILu Lite SigmaMAb universal antibody standard human (MSQC4) (human); remark: listed apart in the source
[4] = biological target: SILu Lite SigmaMAb universal antibody standard human (MSQC4) (human); remark: listed apart in the source

| stoichiometry N [1] | stoichiometry N [2] | stoichiometry N [3] | stoichiometry N [4] | Substance |
| --- | --- | --- | --- | --- |
| 2 | – | – | – | NISTmAb, recombinant humanized monoclonal IgG1 antibody |
| – | 2 | 2 | 2 | SILu Lite SigmaMAb universal antibody standard human (MSQC4) |
